# Measured values as given in paper PMC2811263 (Arteriosclerosis, thrombosis, and vascular biology, 2009).
# T1: wild-type mouse GPIHBP1 (mouse, UniProt Q9D1N2 23-198)
# T1 sequence (looked up): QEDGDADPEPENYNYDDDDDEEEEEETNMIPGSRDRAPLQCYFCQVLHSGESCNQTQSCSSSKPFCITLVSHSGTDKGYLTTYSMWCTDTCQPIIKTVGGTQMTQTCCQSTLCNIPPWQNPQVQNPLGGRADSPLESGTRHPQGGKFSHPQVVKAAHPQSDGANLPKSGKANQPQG
# T2: wild-type human GPIHBP1 (glycosylphosphatidylinositol-anchored high-density lipoprotein-binding protein 1) (human, UniProt Q8IV16 21-151)
# T2 sequence (looked up): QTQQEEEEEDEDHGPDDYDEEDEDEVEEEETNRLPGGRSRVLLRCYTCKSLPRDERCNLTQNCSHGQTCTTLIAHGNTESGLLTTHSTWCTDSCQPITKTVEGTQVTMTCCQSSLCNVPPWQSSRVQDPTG
# B1: avian lipoprotein lipase (LPL) (enzyme, UniProt P11602 26-490, looked up)
# chain: SDPEAEMNFEGIESKFSLRTPAEPDEDVCYLVPGQMDSLAQCNFNHTSKTFVVIHGWTVTGMYESWVPKLVDALYKREPDSNVIVVDWLVRAQQHYPVSAAYTKLVGKDVAMFIDWMEEKFNYPLNNVHLLGYSLGAHAAGIAGSLTKKKVNRITGLDPAGPTFEYADAPIRLSPDDADFVDVLHTYTRGSPDRSIGIQKPVGHIDIYPNGGGFQPGCNLGEALRLIAEKGFSDVDQLVKCSHERSIHLFIDSLLYEEKPSMAYRCNTKEAFEKGLCLSCRKNRCNNLGYKVNRVRTKRNTKMYLKTRAQMPYKVFHYQVKIHFFGKTNVTKVDQPFLISLYGTLDESENIPFTLPEVSSNKTFSFLIYTEVDIGDLLMLKLQWEKDTFFSWSDWWTPFAFTIQRVRVKSGETQKKVVFCSRDGSSRLGKGEEAAIFVKCLEQPVSRKRGGAKKASKENSAHESA
# How the values were obtained:
# wild-type mouse GPIHBP1 = target: T1, wild-type mouse GPIHBP1; experiment: binding of added LPL to transfected cells, bound LPL quantified by ELISA
# [1] = target: T2, wild-type human GPIHBP1 …; experiment: as above
binder,measurement,setting,value
B1,fold more LPL bound than by cells expressing GPIHBP1-Q114P,wild-type mouse GPIHBP1,20.2 fold
same,fold more LPL bound than by cells expressing GPIHBP1-Q115P,[1],39.8 fold
